Assay results reported in patent US20130202598.

What was measured:
[1] = tested on: PE-DTA-mutated cleavage site-defensin
[2] = tested on: PE-DTA-cleavage site-defensin (P6-P4' NS5A/B site of genotype 1b/1a)

## recombinant MBP-scNS3 fusion
[1]
  in vitro cleavage by NS3 (immunoblot with anti-PE antibodies): resistant to cleavage by NS3
[2]
  in vitro cleavage by NS3 (immunoblot with anti-PE antibodies): complete cleavage of the chimeric toxin
